# Laboratory results taken from US20160272683A1 (Novo Nordisk, published 2016).
# Numbered stars: 1 amine (or outer) side, 2 acyl side, 3 side chain; on linkers, the order of the positions; unused ones are H or OH. * marks the point of attachment. C20 diacid = O=C(O)CCCCCCCCCCCCCCCCCCC(=O)*; C18 diacid = O=C(O)CCCCCCCCCCCCCCCCC(=O)*; γGlu = O=C(O)[C@H](CCC(=O)[*:2])N[*:1]
# T1: human calcitonin receptor (human, UniProt P30988 25-474)
# T1 sequence (looked up): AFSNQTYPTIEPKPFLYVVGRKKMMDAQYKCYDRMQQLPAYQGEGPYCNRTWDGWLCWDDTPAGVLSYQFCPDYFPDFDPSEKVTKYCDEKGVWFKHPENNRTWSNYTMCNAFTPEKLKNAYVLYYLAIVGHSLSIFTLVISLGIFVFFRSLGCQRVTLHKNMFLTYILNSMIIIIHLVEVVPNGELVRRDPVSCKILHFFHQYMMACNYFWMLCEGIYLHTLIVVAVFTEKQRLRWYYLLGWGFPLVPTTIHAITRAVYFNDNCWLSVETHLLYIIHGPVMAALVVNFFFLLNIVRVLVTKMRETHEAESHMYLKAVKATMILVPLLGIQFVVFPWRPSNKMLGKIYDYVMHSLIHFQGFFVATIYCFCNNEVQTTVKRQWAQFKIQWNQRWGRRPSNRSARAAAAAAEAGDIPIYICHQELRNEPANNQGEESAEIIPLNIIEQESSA
# T2: human amylin 3(a) receptor (human calcitonin receptor co-expressed with RAMP-3) (human, UniProt P30988 25-474; O60896 24-148, limits assumed)
# T2 sequence (looked up) 1: T1 sequence (looked up)
# T2 sequence (looked up) 2: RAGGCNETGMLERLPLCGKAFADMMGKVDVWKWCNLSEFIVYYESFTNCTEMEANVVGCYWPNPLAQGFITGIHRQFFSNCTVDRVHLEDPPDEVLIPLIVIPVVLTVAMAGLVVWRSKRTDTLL
# B1: [N-terminal(C20 diacid-gGlu), des1, 23Y, 30S, 31G, 32A]mimylin (peptide)
# peptide: {C20 diacid-γGlu}-ASELSTAALGRLSAELHELATYPRTETGSGAP-NH2
# SMILES: CC(C)C[C@H](NC(=O)[C@H](C)NC(=O)[C@H](C)NC(=O)[C@@H](NC(=O)[C@H](CO)NC(=O)[C@H](CC(C)C)NC(=O)[C@H](CCC(=O)O)NC(=O)[C@H](CO)NC(=O)[C@H](C)NC(=O)CC[C@H](NC(=O)CCCCCCCCCCCCCCCCCCC(=O)O)C(=O)O)[C@@H](C)O)C(=O)NCC(=O)N[C@@H](CCCNC(=N)N)C(=O)N[C@@H](CC(C)C)C(=O)N[C@@H](CO)C(=O)N[C@@H](C)C(=O)N[C@@H](CCC(=O)O)C(=O)N[C@@H](CC(C)C)C(=O)N[C@@H](Cc1c[nH]cn1)C(=O)N[C@@H](CCC(=O)O)C(=O)N[C@@H](CC(C)C)C(=O)N[C@@H](C)C(=O)N[C@H](C(=O)N[C@@H](Cc1ccc(O)cc1)C(=O)N1CCC[C@H]1C(=O)N[C@@H](CCCNC(=N)N)C(=O)N[C@H](C(=O)N[C@@H](CCC(=O)O)C(=O)N[C@H](C(=O)NCC(=O)N[C@@H](CO)C(=O)NCC(=O)N[C@@H](C)C(=O)N1CCC[C@H]1C(N)=O)[C@@H](C)O)[C@@H](C)O)[C@@H](C)O
# B2: [N-terminal(C20 diacid-gGlu), des1, 12H, 25H, 30S, 31G]mimylin (peptide)
# peptide: {C20 diacid-γGlu}-ASELSTAALGHLSAELHELATLPHTETGSGSP-NH2
# SMILES: CC(C)C[C@H](NC(=O)[C@H](C)NC(=O)[C@H](C)NC(=O)[C@@H](NC(=O)[C@H](CO)NC(=O)[C@H](CC(C)C)NC(=O)[C@H](CCC(=O)O)NC(=O)[C@H](CO)NC(=O)[C@H](C)NC(=O)CC[C@H](NC(=O)CCCCCCCCCCCCCCCCCCC(=O)O)C(=O)O)[C@@H](C)O)C(=O)NCC(=O)N[C@@H](Cc1c[nH]cn1)C(=O)N[C@@H](CC(C)C)C(=O)N[C@@H](CO)C(=O)N[C@@H](C)C(=O)N[C@@H](CCC(=O)O)C(=O)N[C@@H](CC(C)C)C(=O)N[C@@H](Cc1c[nH]cn1)C(=O)N[C@@H](CCC(=O)O)C(=O)N[C@@H](CC(C)C)C(=O)N[C@@H](C)C(=O)N[C@H](C(=O)N[C@@H](CC(C)C)C(=O)N1CCC[C@H]1C(=O)N[C@@H](Cc1c[nH]cn1)C(=O)N[C@H](C(=O)N[C@@H](CCC(=O)O)C(=O)N[C@H](C(=O)NCC(=O)N[C@@H](CO)C(=O)NCC(=O)N[C@@H](CO)C(=O)N1CCC[C@H]1C(N)=O)[C@@H](C)O)[C@@H](C)O)[C@@H](C)O
# B3: [N-terminal(C20 diacid-gGlu), des1, 21S, 23Y, 30S, 31G]mimylin (peptide)
# peptide: {C20 diacid-γGlu}-ASELSTAALGRLSAELHELSTYPRTETGSGSP-NH2
# SMILES: CC(C)C[C@H](NC(=O)[C@H](C)NC(=O)[C@H](C)NC(=O)[C@@H](NC(=O)[C@H](CO)NC(=O)[C@H](CC(C)C)NC(=O)[C@H](CCC(=O)O)NC(=O)[C@H](CO)NC(=O)[C@H](C)NC(=O)CC[C@H](NC(=O)CCCCCCCCCCCCCCCCCCC(=O)O)C(=O)O)[C@@H](C)O)C(=O)NCC(=O)N[C@@H](CCCNC(=N)N)C(=O)N[C@@H](CC(C)C)C(=O)N[C@@H](CO)C(=O)N[C@@H](C)C(=O)N[C@@H](CCC(=O)O)C(=O)N[C@@H](CC(C)C)C(=O)N[C@@H](Cc1c[nH]cn1)C(=O)N[C@@H](CCC(=O)O)C(=O)N[C@@H](CC(C)C)C(=O)N[C@@H](CO)C(=O)N[C@H](C(=O)N[C@@H](Cc1ccc(O)cc1)C(=O)N1CCC[C@H]1C(=O)N[C@@H](CCCNC(=N)N)C(=O)N[C@H](C(=O)N[C@@H](CCC(=O)O)C(=O)N[C@H](C(=O)NCC(=O)N[C@@H](CO)C(=O)NCC(=O)N[C@@H](CO)C(=O)N1CCC[C@H]1C(N)=O)[C@@H](C)O)[C@@H](C)O)[C@@H](C)O
# B4: [N-terminal(C18 diacid-gGlu), des1, 4Q, 30S, 31G]mimylin (peptide)
# peptide: {C18 diacid-γGlu}-ASQLSTAALGRLSAELHELATLPRTETGSGSP-NH2
# SMILES: CC(C)C[C@H](NC(=O)[C@H](C)NC(=O)[C@H](C)NC(=O)[C@@H](NC(=O)[C@H](CO)NC(=O)[C@H](CC(C)C)NC(=O)[C@H](CCC(N)=O)NC(=O)[C@H](CO)NC(=O)[C@H](C)NC(=O)CC[C@H](NC(=O)CCCCCCCCCCCCCCCCC(=O)O)C(=O)O)[C@@H](C)O)C(=O)NCC(=O)N[C@@H](CCCNC(=N)N)C(=O)N[C@@H](CC(C)C)C(=O)N[C@@H](CO)C(=O)N[C@@H](C)C(=O)N[C@@H](CCC(=O)O)C(=O)N[C@@H](CC(C)C)C(=O)N[C@@H](Cc1c[nH]cn1)C(=O)N[C@@H](CCC(=O)O)C(=O)N[C@@H](CC(C)C)C(=O)N[C@@H](C)C(=O)N[C@H](C(=O)N[C@@H](CC(C)C)C(=O)N1CCC[C@H]1C(=O)N[C@@H](CCCNC(=N)N)C(=O)N[C@H](C(=O)N[C@@H](CCC(=O)O)C(=O)N[C@H](C(=O)NCC(=O)N[C@@H](CO)C(=O)NCC(=O)N[C@@H](CO)C(=O)N1CCC[C@H]1C(N)=O)[C@@H](C)O)[C@@H](C)O)[C@@H](C)O
# B5: [N-terminal(C20 diacid-gGlu), -1E, 1A, 23Y, 30S, 31G]mimylin (peptide)
# peptide: {C20 diacid-γGlu}-EAASELSTAALGRLSAELHELATYPRTETGSGSP-NH2
# SMILES: CC(C)C[C@H](NC(=O)[C@H](C)NC(=O)[C@H](C)NC(=O)[C@@H](NC(=O)[C@H](CO)NC(=O)[C@H](CC(C)C)NC(=O)[C@H](CCC(=O)O)NC(=O)[C@H](CO)NC(=O)[C@H](C)NC(=O)[C@H](C)NC(=O)[C@H](CCC(=O)O)NC(=O)CC[C@H](NC(=O)CCCCCCCCCCCCCCCCCCC(=O)O)C(=O)O)[C@@H](C)O)C(=O)NCC(=O)N[C@@H](CCCNC(=N)N)C(=O)N[C@@H](CC(C)C)C(=O)N[C@@H](CO)C(=O)N[C@@H](C)C(=O)N[C@@H](CCC(=O)O)C(=O)N[C@@H](CC(C)C)C(=O)N[C@@H](Cc1c[nH]cn1)C(=O)N[C@@H](CCC(=O)O)C(=O)N[C@@H](CC(C)C)C(=O)N[C@@H](C)C(=O)N[C@H](C(=O)N[C@@H](Cc1ccc(O)cc1)C(=O)N1CCC[C@H]1C(=O)N[C@@H](CCCNC(=N)N)C(=O)N[C@H](C(=O)N[C@@H](CCC(=O)O)C(=O)N[C@H](C(=O)NCC(=O)N[C@@H](CO)C(=O)NCC(=O)N[C@@H](CO)C(=O)N1CCC[C@H]1C(N)=O)[C@@H](C)O)[C@@H](C)O)[C@@H](C)O
# B6: [N-terminal(C18 diacid), 5I, 9I, 10I, 20I]mimylin (peptide)
# peptide: {C18 diacid}-EASEISTAIIGRLSAELHEIATLPRTETGPESP-NH2
# SMILES: CC[C@H](C)[C@H](NC(=O)[C@H](C)NC(=O)[C@@H](NC(=O)[C@H](CO)NC(=O)[C@@H](NC(=O)[C@H](CCC(=O)O)NC(=O)[C@H](CO)NC(=O)[C@H](C)NC(=O)[C@H](CCC(=O)O)NC(=O)CCCCCCCCCCCCCCCCC(=O)O)[C@@H](C)CC)[C@@H](C)O)C(=O)N[C@H](C(=O)NCC(=O)N[C@@H](CCCNC(=N)N)C(=O)N[C@@H](CC(C)C)C(=O)N[C@@H](CO)C(=O)N[C@@H](C)C(=O)N[C@@H](CCC(=O)O)C(=O)N[C@@H](CC(C)C)C(=O)N[C@@H](Cc1c[nH]cn1)C(=O)N[C@@H](CCC(=O)O)C(=O)N[C@H](C(=O)N[C@@H](C)C(=O)N[C@H](C(=O)N[C@@H](CC(C)C)C(=O)N1CCC[C@H]1C(=O)N[C@@H](CCCNC(=N)N)C(=O)N[C@H](C(=O)N[C@@H](CCC(=O)O)C(=O)N[C@H](C(=O)NCC(=O)N1CCC[C@H]1C(=O)N[C@@H](CCC(=O)O)C(=O)N[C@@H](CO)C(=O)N1CCC[C@H]1C(N)=O)[C@@H](C)O)[C@@H](C)O)[C@@H](C)O)[C@@H](C)CC)[C@@H](C)CC
# B7: [N-terminal(C20 diacid-gGlu), des1, 23Y, 30S, 31G, 33Y]mimylin (peptide)
# peptide: {C20 diacid-γGlu}-ASELSTAALGRLSAELHELATYPRTETGSGSY-NH2
# SMILES: CC(C)C[C@H](NC(=O)[C@H](C)NC(=O)[C@H](C)NC(=O)[C@@H](NC(=O)[C@H](CO)NC(=O)[C@H](CC(C)C)NC(=O)[C@H](CCC(=O)O)NC(=O)[C@H](CO)NC(=O)[C@H](C)NC(=O)CC[C@H](NC(=O)CCCCCCCCCCCCCCCCCCC(=O)O)C(=O)O)[C@@H](C)O)C(=O)NCC(=O)N[C@@H](CCCNC(=N)N)C(=O)N[C@@H](CC(C)C)C(=O)N[C@@H](CO)C(=O)N[C@@H](C)C(=O)N[C@@H](CCC(=O)O)C(=O)N[C@@H](CC(C)C)C(=O)N[C@@H](Cc1c[nH]cn1)C(=O)N[C@@H](CCC(=O)O)C(=O)N[C@@H](CC(C)C)C(=O)N[C@@H](C)C(=O)N[C@H](C(=O)N[C@@H](Cc1ccc(O)cc1)C(=O)N1CCC[C@H]1C(=O)N[C@@H](CCCNC(=N)N)C(=O)N[C@H](C(=O)N[C@@H](CCC(=O)O)C(=O)N[C@H](C(=O)NCC(=O)N[C@@H](CO)C(=O)NCC(=O)N[C@@H](CO)C(=O)N[C@@H](Cc1ccc(O)cc1)C(N)=O)[C@@H](C)O)[C@@H](C)O)[C@@H](C)O
# Target: T1, human calcitonin receptor
# Experiment: cell-based or functional assay
row,hCTR funct. EC50 (pM),Binder
1,42,"{C20 diacid-γGlu}-ASGLSTAALGRLSAELHELATYPRTETGSGSP-NH2 [[N-terminal(C20 diacid-gGlu), des1, 4G, 23Y, 30S, 31G]mimylin]"
2,41,B1
3,12,B2
4,27,B3
5,11,B4
6,15,B5
7,6,B6
8,29,B7

# Target: T2, human amylin 3(a) receptor (human …)
# Experiment: cell-based or functional assay
row,hAmylin-R funct. EC50 (pM),Binder
1,38,"{C20 diacid-γGlu}-ASGLSTAALGRLSAELHELATYPRTETGSGSP-NH2 [[N-terminal(C20 diacid-gGlu), des1, 4G, 23Y, 30S, 31G]mimylin]"
2,37,B1
3,26,B2
4,33,B3
5,9,B4
6,17,B5
7,10,B6
8,32,B7
